Assay results reported in the nanobody polyreactivity screen of Harvey et al. (2022).

Assay: yeast display, Sf9 membrane polyspecificity reagent, FACS + sequencing; frameworks hold sequencing errors
Procedure, shortened: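 A nanobody's polyreactivity label depends on the gate it was sorted from. Yeast display cells were stained with 10% biotinylated, detergent-solubilized Sf9 membrane reagent for 1 hour at 4 °C, enriched on streptavidin microbeads and sorted by FACS. The low and high (top ~1%) gates were set on anti-HA fluorescence for expression and streptavidin fluorescence for reagent binding.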

Sequence | polyreactivity (PSR sort gate)
EDELVESGGGIVQAGGSLRLSCAATGSIIVVNAMVWYRQAPRKERELVAAISRGGITNYADSVKGRFTISRDNAKNTVYLQMNSLKPEDTAVYYCNARGSRWVKPERDYWGQGTQVTVSS | low polyreactivity
QVQLVESGGGLVQAGGSLRLSCAASGSIFLPYAMGWNRQAPGKERELVAAITWSGGRTYYADSVKGRFTISRDNAKNTVYLQMNSLKPEDTAVYYCAADDSEGFDYWGQGTQVTVSS | high polyreactivity
QVHLVESGGGLVQAGGSLSLSCAASGSIFRYYAMGWYRQAPGKEREFVAAITRGGGRTYYADSVKGRFTISRDTAKHTVYLQLNSLKPEDTAVYSCAAGPPRTRYRNARFDYWGQGTQVTVSS | high polyreactivity
QVQLVESGGGLVQAGGSLRLSCAASGSIFAINAMGWYRQAPGKERELVAAIRSGGRTYSADSEKGRFTISRDNAKITVYLQMNSLKPEDTAVYYCTDGGKWIGSDYWGQGTQVTVSS | high polyreactivity
QVQLVESGGGLVQAGGSLRLSCAASGFIFPAYTMGWYRQAPGKERELVAAITWSGGSTYYADSVKGRFTISRDNAKNTVYLQMKSLKPEDTAVYYCAAYVSRKYRKGPRFAYDYWGQGTQVTVSS | high polyreactivity
QVQLVESGGGLVQAGGSLRLSCAASGFTFWTYAMGWYRQAPGKERELVAAIDSGGSTYYADSVKGRFTISRDNAKNTVYLQMNSLKPEDSAVYYCNAGPSVTSGYDYDYWGQGTQVTVSS | low polyreactivity
QVQLVESGGGLVQAGGSLRLSCAASGFIFTPYAMGWYRQAPGKERELVAAIRNTGSTYYADSVKGRFTISRDNAKNTVYLQMNSLKPEDTAVYYCNARRYRWAVVKGGYWGQGTQVTVSS | high polyreactivity
QVQLVESGGGLVQAGGSLRLSCASSGGISYYYYAMGWYRQAPGKERELVAAISSDDDTYYADSVKGRFTISRDNAKNTVYLQMNSLKPEDTAVYYCAAEYDVVGPSIYGYLFYYWGQGTQVTVSS | high polyreactivity
QVQLVETGGGLVQAGGSLRLSCAASGSTFQLYAMGWYRQAPGKERDFVAAISNGGRTNYADSVKGRFTISRDNAKNTVYLQMTSLKPEDTAVYYCNADQVWWSFDRVLVGYEYWGKGTQVTVSS | low polyreactivity
QDQLVESGGGLVQAGGSLRLSCAASGRTFYYAMGWYRQAPGKERYADSVKGRFTISRDNAKNTVYLQMNSLKPEDTAVYYCAAKVPEPPSLDESDYWGQGTQVTVSS | low polyreactivity
QVQLVESGGGLVQAGGSLRLSCAASGFNIVRYAMGWYRHAPRKERELVATITSGTSTNYADSVKGRITISRDNAKNTVYFQMNSLKPDDTAVYYCAADHYYTGTTYNFWGQGTQVNVSS | low polyreactivity
QVQLVESGGGLVQAGGSLRLSCAASGSIFPKYAKGWYRQAPGKEREMVAAINWRGVSTYYADSVKGRFTISRDNAKNTVYLQMNSLKPEDTAVYYCAADLLHTRQFGYWGQGTQVTVSS | low polyreactivity
QVQLVESGGGLVQAGGSLRLSCAASGSIFGPNAMGWYRQAPGKERELVAAITSGSSTKYADSVKGRFTISRDNAKNPVYLQMNSLKPEDTAVYYCAASGTTTWKYGYWGQGTQVTVSS | low polyreactivity
QVQLVESGGGLVQAGGSLRLSCAASGRIFHANAMGWSRQAPGKERELVAGISRNGGRTYYADSVKGRFTISRDNAKNTVYLQMNSLKPEDTAVYYCNALHWQSKELDYFWGQGTQVTVSS | high polyreactivity
QVQLVESGGGLVQAGGSLRLSCAASGSIFGYNTMGWSRQAPGKERELVASISYSGGSTYYADSVKGRFTISRDNAKNTVYLQMNSLKPEDTAVYYCNTGSRYRPNRRYGYWGQGTQVTVSS | high polyreactivity
QVQLVESGGGLVQAGGSLRLSCAASGSTSQTYTMGWYRQAPGKERELVAAISLRGGRTYYADSVKGRFTISRDNAKNTVYLQMNSLKPEDTAVYYCNRDYRGPYYYWGQGTQVTVSS | high polyreactivity
QVQLVESGGGLVQAGGSLRLSCAASGSTSGIYAMGWYRQAPGKERELVARINSGGSTYYADSVKGRFTISRDNAKNTVYLQMNSLKPEDTAVYYCNRVPNKYGRPIDSRWRGDYWGQGTQVTVSS | low polyreactivity
QVQLVESGGGLVQAGGSLRLSCAASGRTFYVYTMGWYRQAPGKERELVAAITSGGSTNYADSVKGRFTISRDNAKNTVYLQMNSLKPEDTAVYYCAARVSTVFKRYYYWGQGTQVTVSS | high polyreactivity
QVQLVESGGGLVQAGGTLRLSCAASGSTFRGYAMGWYRQAPGKERELVAAIRRAGSTNYAESVKGRFTISRDNAKNTVYLQMNSLKPEDTAVYYFADSKCLWYGASVSQKKAGMDSWGQGTQVTVSS | low polyreactivity
QVQLVESGGGLVQAGVSLRLSCAASGITFVNNDMGWYRQAPGKERELVAAISSSGGSTYYADSVKGRFTISRDNAKNTDYLQMNSLKPEDTAVYYCAAPWYNAGRFRYYYWGQGTQVTVSS | high polyreactivity
QVQLVESGGGLVHAGGSLRLSCAASGLIFPRYDMGWYRQAPGKELELVAAITSGGGTYYADSVKGRITISRDNAKNTVYLQMNSLIPEDTAVYYCARDHYRHSRFFYRYVYWGQGTQVSVSS | low polyreactivity
QVQLVESRGGLVQAGGSLRLSCAASGRTFVPYAMGWYIQAPGKERELVAAISYSGDSTYYADSVKGRFTISRDNAKNTVYLQLNSLKPEDTAVYYCAAPSYFRMGYWGQGTQVTVSS | low polyreactivity

Sequence | polyreactivity (PSR sort gate)
QVQLVESGGGLVQAGGSLRLSCAASGSIIATNAMGWYRQAPGKERELVAAISRSAGRTYYADSVKGRFTISRDNAKNTVYLQMNRLKPDDTAVYYCNAVFPGVTNQMDYWGQGTQVTVSS | high polyreactivity
QVQLVESGGGLVQAGGSVRLSCAASGLIFTIYAMGWYRQAPGKERELVAVITWSGGSTYYADSVKGRFTISRDNAKNTVYLQMYSLKPEDTAVYYCAVEWAYPYWYTYYLEDYWGQGTQVTVSS | low polyreactivity
QVQLVESGGGLVQAGGSLRLSCAASGFTFNRYAMGWYRPAPGKERELVAAISRSTATTYYADSVKGRFTISRDNAMNTVYLQMNSLKPEDTAVFYCNSPQRYWPPYGYWGQGTQVTVSS | high polyreactivity
QVQLVESGGGLVQAGGSHRLSCAASGSIFPSYAKGWYRQAPGKERELVATIGRGGTTNYADSVKGRFTISRDNAKNTVYLQMNSLKPEDTAVYYCNAERIWRYKYGYDYWGQGTQVTVSS | high polyreactivity
QVQLEESGGGLVQAGGSLRLSCAASGSIIDYYAMGWYRQAPGKERELVADITVTGDGTYYADSVKGRFTISRDNAKNTVYLQMNSLKPEDTAVYYCAADFWLVSFQWDFEYDYWGQGTQVTVSS | low polyreactivity
QVQLVESGVGLVQAGGSLRLSCAASGSIFYENAMGWYRQEPGKEREFVATIDLIGDRTFYADSVKVRFTISRDNAKNTVYLQMNSLKPEDTAVYYCAAERVGVFFRYDYWGQGTQVTVSS | low polyreactivity
QVQLQESGGGLVQAGGSLRLSCAASRNISGSSDLGWYHQAPGKEREFVASITSGGTTYYADSVKGRFTISRDNAKNTVYLQMNSLKPEDTAVYYCAVGDPADAEFGYWGQGTQVTVSS | low polyreactivity
QVQLVESGGGLVQAGGSLRLSCAASGSTFGRNTMGWYRQAPGKERELVAAITSGDTTTYADSVKGRFTISRDNAKNTVYLQMNSLKPEVTAVYYCAVDPVRGRDYSWMDYWGQGTQVTVSS | low polyreactivity
QVQLVESGGGLVQAGGSLRLSCAASGLIFYSNAMGWYRQAPGKDRELVAAITTSGSSTYYADSVKGRFTISRDNAKNTVYIPMNSLKPEDTAVYYCATEWRSNYWGQGTQVTVSS | low polyreactivity
QVQLVESGGGLVQAGGSLRLSCAASGNIIVFYAMGWYRQAPGKEREFVAAITSGGSTNYADSVKGRFTISRDNAKNTVYLQMNSLKPEDTAVYYCAGRQWFSHRRWGGSRYDYWGQGTQVTVSS | high polyreactivity
QFQLVESGGGLVHAGGSLRLSCASSGSIFVVYAMGWYRQAPGKEREFVASIRTGGSTNYADSVKGRFTISRDNAKNTVYLQMNSLKPEDTAVYYCAAASWNSNRHYYVARYYYWGQGTQVTVSS | high polyreactivity
QVQLVDSGVGLVQAGGSLRLSCAASGRIFDYYAMGWYRQAPGKERELVAAITSGGTTTYYADSVKGRFTISRDNAKNTVYLQMNSLKPEDTAVYYCAASFFGDGYIDLWYKFDYWGQGTQVTVSS | low polyreactivity
QVQLVESGGGLVQAGGSLRLSCAASGSIFSGYVMGWYRQAPGKERELVAAIDNSSGSTYYADSVKGRFTISRDNAKNSVYLQMNSLKPEDTAVYYCAAAYYWKAYSEYDYWGQGTQVTVSS | low polyreactivity
QDQLVESGGGLVQAGGSLRLSCAASGIIFKFNVMGWYRQAPGKERELVAAISTGGSTYYADSVKGRFTISRDNAKNTVYLQMNSLKPEDTAVYYCNAVSPLSIWSSRDGWYGYWGQGTQVTVSS | high polyreactivity
QVQLVESGGGLVQAGGSLRLSCAASGSTLGGYAMGWYRQAPGKERELVAAISGSRGSTYYADSVKGRFTISRDNAKNTVYLQMTSLKPEDTAVYYCAAGSYWVQYQYDYWGQGTQVTVSS | low polyreactivity
QDQLVESGGGLVQAGGSLRLICAASGRIFNVYAMGWYRQAPGKERELVAAISWRGGNTYYADSVKGRFTISRDNAKNTVYLQMNSLKPEDTAVYYCAAVYRGYDYWGQGTQVTVSS | high polyreactivity
QVHLVESGGGLVQAGGILRLSCSAYGSIFDVNAKGWYRQSPGKERELVAAISDSGGSTYYADSVKGRFTISRDNAKNTVYLQMNSLKPEDTSVYYCNADWYWYNYYDFDYWGQGTQVTVSS | low polyreactivity
QVQLVESGGGLVQAGGSLRLSCAASGYTFYFYARGWYRQAPGKERELGAAITGGGTTSYADSVKGRFTISRDNAKNTVYLQMNSLKPEDTAVYYCNLLFADKSDYWGQGTQVTVSS | low polyreactivity
QVQLVESGGGLVQAGGSLRLSCAASGSIFRRNTMGWYRQAPGKERELVAAISTRGGSTYYADSVKGRFTISRDNAKNTVYLQMNSLKPEDTAVYYCNTRGYYIVHRGYDYWGQGTQVTVSS | high polyreactivity
QVQLVESGGGLVQAGGSLRLSCAASGRIFRTNAMGWYRQAPGKDRELVAAISRSGGSTYYADSVKGRFTISRDNAKNTVYLQMNSLKPEDTAVYYCATRVGKILTTKYGYWGQGTQVTVSS | high polyreactivity
QVQLVESGGGLVQAGGSHRLSCAASGFTFGRYPMGWYRQAPGKERELVAAISSSGSSTYYSDSVKGRFTISRDNAKNTVYLQMNSLKQEDTAVYYCAAAIYVSDRHTYNYWGQGSQVTVSS | high polyreactivity
